The target in one test is T1, human CLL1 ECD (65-265) (human, UniProt Q5QGZ9 65-265).
T1 construct: Expressed in 293-F cells and purified by IMAC; also called huCLL1; recombinant human CLL1 protein
T1 sequence: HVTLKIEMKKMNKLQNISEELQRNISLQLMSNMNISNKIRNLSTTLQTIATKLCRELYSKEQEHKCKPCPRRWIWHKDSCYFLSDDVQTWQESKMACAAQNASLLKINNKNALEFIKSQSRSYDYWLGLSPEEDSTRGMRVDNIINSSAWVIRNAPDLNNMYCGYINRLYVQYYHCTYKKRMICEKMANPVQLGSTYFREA
The experiment in a line: SPR (Biacore T200), sdAb supernatant, recombinant human CLL1. The method, then:
(§1) The unique clones were grown in 2YT medium and induced by IPTG for sdAb expression in the supernatant. The supernatants of unique binders were analyzed for their ability to bind to a CLL1-expressing HKE293/huCLL-1 cell line and cancer cell line AML193 using a FACS assay. Affinities of selected binders in supernatants to recombinant human and cynomolgus monkey CLL1 proteins were determined by surface plasmon resonance (SPR) on a BIACORE® T200 instrument. The dissociation phase was used to calculate the kd values for each sdAb.
(Surface plasmon resonance follows binding to a sensor surface in real time, without labels.)

The target of test [1] is T2, cynomolgus monkey CLL1 ECD (65-265) (cynomolgus monkey).
T2 construct: Expressed in 293-F cells and purified by IMAC; also called cynoCLL1; recombinant cynomolgus monkey CLL1 protein
T2 chain: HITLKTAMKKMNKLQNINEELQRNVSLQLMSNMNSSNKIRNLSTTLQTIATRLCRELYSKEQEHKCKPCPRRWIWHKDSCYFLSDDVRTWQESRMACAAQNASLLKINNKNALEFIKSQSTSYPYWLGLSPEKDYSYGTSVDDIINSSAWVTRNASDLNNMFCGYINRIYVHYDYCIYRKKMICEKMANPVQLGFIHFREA
The test is described as follows: SPR (Biacore T200), sdAb supernatant, recombinant cynomolgus CLL1. On the procedure:
as §1

B1: AS82505 sdAb (VHH)
VHH: QVQLAESGGGLVQPGGSLRLSCVASGFTFSSYDMSWVRQAPGKGVEWVSTINSGGGSTYYAESAKGRFTISRDNAKNTLYLQLNSLKTEDTAMYYCVKGFPDDDGPGELSREYNYWGQGTQVTVSS
notes: Camel sdAb tested as E. coli culture supernatant; not shown: C-terminal His-tag encoded by the soluble expression vector
B1: the figures for the Kd (in the test with human CLL1 ECD (65-265); in test [1]) were 0.83 nM and 0.59 nM, respectively.

B2: AS82718 sdAb (VHH)
VHH: QVQLAESGGGLVQTGGSLRLSCTASGLNFGLYAMGWFRQAPGKEREGVSCINGGGGITVYSDFVKSRFTISRDNAKNTLYLQMNSLKPDDTATYYCAADRSPFGSCSSDWSRSSDWSRMAEKFGYWGQGTQVTVSS
notes: as for B1
As for B2, the dissociation constant (Kd) – broadly, the concentration at which binding is half-saturated – in the test with human CLL1 ECD (65-265) turned out to be 24 nM; in test [1], 2.6 nM.

B3: AS83183 sdAb (VHH)
VHH: QVHLVESGGGSVQSGGSLRLSCAASGYAYRSYCMGWFRQAPGKVLEGVAAIESDGTTTYADSVMGRFTISQDNAKNALYLQMNSLKPEDTAMYHCAAVKGSCDSASSDTPSYWGQGTQVTVSS
notes: as for B1
B3: the Kd with human CLL1 ECD (65-265) was found to be 1 nM; in test [1], 0.26 nM.

B4: AS82480 sdAb (VHH)
VHH: EVQLVESGGGSVQAGGSLRLSCAASGVTYSSACMGWFRQAPGKGREVVAVLYAGGSTTHYASSVKERFTISQDNAKNTVYLQMNSLKPEDTAVYYCAAALGDRSSCEWRYWGQGTQVTVSS
notes: as for B1
Regarding B4, the Kd amounted to 1.5 nM with human CLL1 ECD (65-265) and 47 nM in test [1].

B5: AS83180 sdAb (VHH)
VHH: QVQLVESGGGSVQAGGSLRLSCVVSAATNCRYIAWYRQAPGKAREFVSTLGSDGNTNYADSVKGRFTISQGNIKNMAYLEMNSLKPEDTGMYYCGTRCQIGDDWRSSDWAQGTQVTVSS
notes: as for B1
In the case of B5, the dissociation constant (Kd) amounted to 3 nM with human CLL1 ECD (65-265) and 2.4 nM in test [1].

B6: AS83591 sdAb (VHH)
VHH: QVQLVESGGGLVQPGGSLRLSCAASGFLFSIYDMNWVRQAPGKGVEWIAGITNNEHTTAYADSVKGRFTISRDNTKNTLFLQMNSLKPEDTAMYYCQRDDGQVRGQGTQVTVSS
notes: as for B1
As to B6, the equilibrium dissociation constant (Kd) stood at 31 nM in the test with human CLL1 ECD (65-265) and 19 nM in test [1].

B7: AS83309 sdAb (VHH)
VHH: EVQLVESGGDLVRPGGSLRLSCAASGFTFSIYDMNWVRQAPGKGLEWVAGISGNGYSTSYAESVKGRFTISKDNAKNTVYLQLSSLKFEDTAMYYCVRGGEKWDENDLRRKGQGTQVTVSS
notes: as for B1
On to B7, for which the equilibrium dissociation constant (Kd) in the test with human CLL1 ECD (65-265) was found to be 7.3 nM; in test [1], 0.63 nM.

B8: AS82658 sdAb (VHH)
VHH: QVQLVESGGGSVQAGGALSLSCAASGYTVRIDYMGWYRQTPGKGREPVATIASNGGTAYADSVEGRFTISQDNAKNSVYLQMNTLKPGDTAMYYCAAGTWPTLTYFGQGTQVTVSS
notes: as for B1
Regarding B8, the Kd came to 1.6 nM with human CLL1 ECD (65-265) and 1.9 nM in test [1].

B9: AS83431 sdAb (VHH)
VHH: QVRLVESGGGSVQSGGSLRLSCAASGYARSSTCLGWFRQAPGKEVEGVAIIGRDGSTGYADSVKGRFTISQDNAKNTLYLHMDSLKPEDTAMYYCAAVEGGCEVSEGTGEQQLAYWGQGTQVTVSS
notes: as for B1
Take B9: the dissociation constant (Kd) with human CLL1 ECD (65-265) came out at 0.37 nM; in test [1], 0.24 nM.

B10: AS83457 sdAb (VHH)
VHH: QVQLVESGGGLVQPGGSLRLSCAASGFFFSIYDMNWFRQAPGKGLEWVSGITGNGYTTAYADSVKGRFTISRDNAKNTLYLQLNSLKSEDTAMYYCAQGSNRGRGTQVTVSS
notes: as for B1
In the case of B10, the dissociation constant (Kd) in the test with human CLL1 ECD (65-265) was determined as 31 nM; in test [1] it was 19 nM.

B11: AS82494 sdAb (VHH)
VHH: QVQLVESGGGLVQPGGSLRLSCAASGFTFSVYDMNWFRQAPGKGLEWVSGITGNGYTTSYADSVKGRFTISRDNAKNTLYLQLNSLKSEDTAMYYCAKETNRGQGTQVTVSS
notes: as for B1
Consider B11, for which the Kd stood at 21 nM with human CLL1 ECD (65-265) and 98 nM in test [1].

B12: AS83010 sdAb (VHH)
VHH: QVQLVESGGGLVQPGGSLRLSCVASGFFFSAYDMNWFRQAPGKGLEWVSGITGNGYTTAYADSVKGRFTISRDNAKNTLYLQLNSLKSEDTAMYYCTEGDNRGQGTQVTVSS
notes: as for B1
B12: the Kd with human CLL1 ECD (65-265) amounted to 8.4 nM; in test [1], 3.2 nM.

B13: AS83791 sdAb (VHH)
VHH: QVKLVESGGGLVQPGGSLRLSCVASGFAFSSADMSWVRQAPGKGVEAVSVINRDGASTYYADSVKGRFTISRDNAKSTLYLQMNSLKPEDTAMYHCAVVPENEYESGSYNYWGQGTQVTVSS
notes: Tested as E. coli culture supernatant; not shown: C-terminal His-tag encoded by the soluble expression vector
Turning to B13, the equilibrium dissociation constant (Kd) in the test with human CLL1 ECD (65-265) is 0.44 nM; in test [1] it was 0.22 nM.

B14: AS82544 sdAb (VHH)
VHH: EVQLVESGGALVQPGGSLRLSCTASGFLFRVYDMNWVRQAPGKGVEWIVGITNNGYTTAYADSVKGRFTISRDNTENTLFLQMNSLKPEDTAMYYCQTDNGRVRGQGTQVTVSS
notes: as for B1
For the molecule B14, the values for the dissociation constant (Kd) (in the test with human CLL1 ECD (65-265); in test [1]) were 8.6 nM and 39 nM, respectively.

B15: AS83478 sdAb (VHH)
VHH: QVHLMESGGGLVQPGESLRLSCAASGFIFANYEMSWVRQAPGKVLEWVSGINSRGNATYYADSVKGRFTISRDNAEHTLYLQMNSLKPEDTAMYHCVVGGMTTDQGSPDFYWGQGTQVTVSS
notes: as for B1
As to B15, the Kd stood at 2 nM in the test with human CLL1 ECD (65-265) and 1.4 nM in test [1].
